Test: yeast display, Sf9 membrane polyspecificity reagent, FACS + sequencing; frameworks hold sequencing errors
Procedure, shortened: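 Nanobodies from a synthetic yeast display library (Saccharomyces cerevisiae BJ5465), induced 36–48 hours with galactose, were stained 1 hour at 4 °C with 10% biotinylated, detergent-solubilized Sf9 membrane reagent, enriched on streptavidin microbeads, then FACS-sorted. Anti-HA (expression) and streptavidin (reagent binding) fluorescence set low and high (top ~1%) gates. Polyreactivity labels come from the gate of origin. Genes were colony-PCR amplified, MiSeq 2 × 250 sequenced and filtered by CDR length.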

Sequence	polyreactivity (PSR sort gate)
QVQLVESGGGLVQAGGSLRLSCAASGSIFAYYAMGWYRQAPGKERELVAAITRGGRKYYADSVKGRFTISRDNAKNTVYLQMNILKPEYTAVYYCNARNVYFVSPNYDYWGQCTQVTVSS	high polyreactivity
QVQLVESGGGLVQAVGSLRLSCAASGFTYSPNAMGWYRQAPGKERELVATISWNGGRTHYADSVKGRFTISRDNAKNTVYLQMNSLKPEDTAVYDCNVVRATGRYYYWGQGTQVTVSS	high polyreactivity
QVQLVESGGRLVQAGGSRRLSCAASGFTFGIYAMGWYRQAPGKARELVAAITSGGITKYADSVKGRFTISRDNAKNTVYLQMKSLKPEDTAVYYCAATGFRQSYDSTWYRYDYWGQGTQVTVSS	low polyreactivity
QVQLVESGGGLVQAGGSLRLSCAASGSIFGKYAMGWYRQAPGKERELVAAITGRGASTYYADSVKGRFTISRDNAKNTVYLQMNSLKPVDTAVYYCAARASWYYVYPYDYWGQGTQVTVSS	low polyreactivity
QVQLVESGGGLVQAGGSLRLSCAASGSIFVPYAMGWYRQAPGKERELVAAISNGDSTYYADSVKGRFTISRDNGKNTVYLQMNSLNPEDTAVYYCAAPYAGWRDGGDYWGQGTQVTVSS	low polyreactivity
QVQLVESGGGLVQAGGSLRLSCAASGSTFSTNAMGWYRQAPGQERELVAAISSSSGRTYYADSVKGRFTISRDNAKNTVYLQMNSLKPEDTAVYYCAAANQGYRSGRKGVQRFDYWGQGTQVTVSS	high polyreactivity
QVQLVESGGGLVQAGGSLRLSCAASGFIFVKYAMGWYRQAPGKERELVAAITNGGSTYYADSVKGRFTISRDNAKNTVYLQMNSLKPEDTAVYYCAAQYHDWWRRLLYRSFLPFDYWGQGTQVTVSS	low polyreactivity
QVQLVESGGGLVQAGGSLRLSCAASGYTFYPYDIGWYRQAPGKERELVAAISWSGGGTYYADSVKGRFTISRDNAKNTVYLQMNSLKPEDTAVYYCAADLKALNQSYPGYEYWGQGTQVTVSS	low polyreactivity
QVQLVESGGGLVQAGGSLRLSCAASGRIFRPYAMGWYRLAPGKERELVAAISWSGDDTYYADSVKGRFTISRDNAKNTVYLQMNSLKPEDTAVYYCAAEVYAAAYDYWGQGTQVTVSS	low polyreactivity
QVQLVESGGGLVQAGGSLRLSCAASGNTFTRNAMGWYRQAPGKERELVAAITGRGGTYYADSVKGRFTISRDNAKNTVYLQMNSLKPEDTAVYYCAAASVTRRDLDYWGQGTQVTVSS	high polyreactivity
QVQLVESGGGLVQAGGSLRLSCAASGGIILPYAMGWYRQAPGKERELVAAISGRTGSTNYADSVKGRFTISRDNAKNTVYLQMNSLKPEDTAVYYCAARGVRSYFFPYNYWGQGTQVTVSS	high polyreactivity
QVQLVESGGGLVQAGGSLRLSCAASGSSFVLYAMGWYRQAPGKERELVAAISLSVGSTYYADSVKGRFTISRDNAKNTVYLQMNSLKPEDTAVYDCNARSSIVSYYWYHYWTREFDYWGQGTQVTVSS	low polyreactivity
QVQIVESGGGLVQAGGSLRLSCAASGSIFTFYAMGWYRQAPGKERELVATINRIGGNTYYADSVKGRFTISRDNAKNTVYLQINSLKPEDTAVYYCAAKPTYRGYGYGSWGQGTQVTVSS	low polyreactivity
QVQLVESGGGLVQAGGSLRLSCAAPGSIFPRYAMGWYRQAPGKERELVAAISRSGGSTYYADSVKGRFTISRDNAKNTVSLQRNSLKPEDTAVYYCATDKVSHRRYDYWGQGTQVTVSS	high polyreactivity
QVQLQESGGGLVQAGGSLLSCAASGTISYYREMGSYRQAPGKERELVAGIGVGTITYYADSVKGRFTISRDNAKKTVFLQMNSLNPEDTAVYFCGDHIDGNDSHAYWGQGTQVTVSS	low polyreactivity
QFQLVESGGGLVQAGGSLRLSCAASGFIFQRYAMGWYRQAPGKERELVAAINFSGGSTYYADSVKGRFTISRDNAKNTVYLQMNSLKPEDTAVYYCNTGNITQTKSIFDYWGQGSQVTVSS	high polyreactivity
QVQLVESGGGLVQAGGSLRLSCAASGSTFFPYAMGWYRQAPGKERELVAGISSDGGTSYADSVKGRFTISRDNAKNTVYLQMNSLKPEDTAVYYCAALQADRDRYPAFDLMDYWGQGTQVTVSS	low polyreactivity
QVQLVESGGGLVQAGGSLRLSCAASGITLRRYAMGWYRQAPGKDRELVDVISVSGGRTHYADSVKGRFTISRDNAKNSVYLQMNSLNPEDTAVYYGAAHFSYRYYTDEVGYWGQGTQVTVSS	high polyreactivity
QVQLVESAGGLVQAGGSLSLSCAASGRTFSYYAMGWYRHARGKERELVAAISRRGGSTYYADSVKGRLTISRDNAKNTVYLQMISLKPEDTAVDYCNARGRSTVGGGFYYWGLGTQVTVSS	high polyreactivity
QVQLVESGGGLVQAGGSLRLSCAASGRIFAVYAMGWYRQAPGKEREFVAAISYSGGITYYADSVKGRFTISRDNAKNTVYLQMNSLIPEDTAVYYCNAYYYFWGQGTQVTVSS	low polyreactivity
QVQIVESGGGLVQAGGSLRLSCAASGSIFDKNAMGWYRQAPGKEREFVAAITWSDGNTYYADSVKGRFTISRDNAKNTVYLQMNSLKREHTAVYYCNADALGVFWDRGGWFDDYWGQGTQVTVSS	low polyreactivity
QVQLVESRGGLVQAGGSLRLSCAASGITSRLNAMVWYRQAPGKERELVAGISRGGGTTYYADSVKGRFTISRDNAKNTVYLQMNSLKTEDTAVYYCAAAYRVRGGTYDSWGQGTQVTVSS	high polyreactivity

Sequence	polyreactivity (PSR sort gate)
QVQLVESGGGLVQAGGSLRLSCAASGSTSYVYAMGWYRQAPGKEREFVAAIRSSGGDTYYADSVKGRFTISRDNAKNTVYLQMNRLKPEDSAVYYCNDRYATAVARFGYWGQGTQVTVSS	high polyreactivity
QVHLVESGGGLVQAGGSLRLSCAASGITFISYAMGWYRQAPGKEREFVAAITRRGGSTYYADSVKGRFTISRDNAKNTVYLQMNSLKPEDTAVYYCAARVLSLYTYYYWGQGTQVTVSS	high polyreactivity
QVQLVESGGGLLQAGGSLRLSCDASGRIFGPNARGWYRQAPGKERELVDSISYSGGYTYYADSVKGRFTISRDNAKITFYLQMLSLIPVDTAVYYCAKGGYWSGYNYWGHGTQVTVSS	low polyreactivity
QVQLQESGGGLVQARGSLRLSCAASGYISHADEMGWYRQAPGKEHELVASFRNGGSTNYADSVKGRFTISRDNAKNTVYLQMNSLKSEDTAVYYCAAWTGQVDIHSYWCQGTQVTVSS	low polyreactivity
QVQLVESGGGLVQAGGSLRLSWAASGFGWYAMGWYRQAPGKEREFVAAISRGGGSTYYADSVKGRFTISRDNAKNTVYLQMNSLKPEDTAVYYCAAVYYRRISQGDTQTYYQYNYWGQGTQVTVSS	high polyreactivity
QVQLVESGGGLVQAGGSLRLSCAASGFNIYNNAMAWYRQAPGKERELVAAITSNGGRTYYADSVKGRFTISRDNAKNTFYLQMNSLKPEDTAVYYCAVDLYVWNVHYYYWGQGTQVTVSS	high polyreactivity
QVQLVESGGGVVQAGGSLRLSCAASGSIFAGIAMGWYRQAPGKERELVADITSGDSTYYADSLKGRFTISRDNAKNTVYLQMNSLTPEDTAVYYCNNQLRVPQGAFFWFHGMDYWGQGTQVTVSS	low polyreactivity
QVQLVESGGGLVQAGGSLRLSCAASGNISLPYTMGWYRQAPGKERELVAAISWDGGRTYYADSVKGRFTISRDNAKNTDYLQMNSLKPEDTAVYYCGARFFLVTLDYWGQGTQVTVSS	low polyreactivity
KLQLVESGRGLVQEGGSLRLSCAASGSTFGANAMGWYRHAPGKASEFVAAISRSGVRTYYADSVKGRFTISRDNAKNTVYLQMNSQKPEDTAVYYCAAYGYWWTYTRDDYWGQGTQGTVSS	low polyreactivity
QVQLVESGGGLVQAGGSLRLSCAASGRTFRYNAMGWYRQAPGKERELVARITVIGDSTYYADSVKGRFTISRDNAKNTVYLQMNSLKPEDTAVYYCAAVSRRVSPYLSARDYWGQGTQVTVSS	high polyreactivity
QVQLVESGGGLVQAGGSLRLSCAASGSSFRRNAMGWYRQAPGKERELVAAITRGGGSTYYADSVKGRFTISRDNAKNTVYLQMNSLKPEDNAVYYCAAQISATRETMDYWGQGTQVTVSS	high polyreactivity
QVQLVESGGGLVQAGGSLRLSCAASGRTFAYHTMGWYRQAPGKERELVARINSGTSTYYADSVKGRFTISRDNEKNTVYLQMNSLKPEDTAVYYCAARGSESIRWYVGGRYGYWGQGTQVTVSS	low polyreactivity
QVQLVESGGGLVQAGGSLRLSCAASGFIFGGYAMGWSRQAPGKERELVAAISRSGGSTYYADSVKGRFTISRDNAKNTVYLQMNSLKPEDTAVYYCNAVPRRQGFNYWGQGTQVTVSS	high polyreactivity
QVQLVESGGGLVQAGGSLRLSCAASGIIFHFNDMGWYRLAPGKERELVAAITSGGSTNYADSVKGRFTISRDNAKKTVYLQMNSLKPEDTADYYCAARRGLRLFAYRHGYWGQGTQVTVSS	low polyreactivity
QVQLVESGGGLVQAGGSLRLSCAASGSTFSVYAMGWYRQAPGKERELVADNTRGGSTYADSVKGRFTISRDNAKNTVYLQMNSLKPEDTAVYYCAREEVTPYPLYWSTREYDYWGQGTQVTVSS	low polyreactivity
QVQLVESGGGLVQAGGSLRISCAASGSTFSTYAMGSYRTEPGKERELVASISNGGSTNYEDSVKGRFTISRDNAKNTVYLQMNSLKPEDTAVYYFNAESKAKYDYFGQGTQVTVSS	low polyreactivity
QVQLVESGGGLVQAGGSLRFSCAASGSTIPPNAMGWYRQAPGKERELVAAINSTGSTNYADSVKGRFTISRDNAKNTVSLQMNSLQPEDTAVYYCAAEGLPYVRVFDFVSRYDYWGQGTQVTVSS	low polyreactivity
QVQLVESGGGLVQAGGSLRLSCAASGSIFRTYAMGWYRQAPGKERELVAAIRRSGGRTYYADSVKGRFTISRDNAKNTVYLQMNSLKPEDTAVYYCNKRVSKQSKYDYWGQGTQVTVSS	high polyreactivity
QVQLVESGGGLVQAGGSLRLSCAASGRTFFWNAMGWYRQAPGKERELVATISRSGGSTYYADSVKGRFTISRDNAKNTVYLQMNSLKPEDTAVYYCAAQYVRRSRKYDYWGQGTQVTVSS	high polyreactivity
QVQLVESGGGLVQAGGSLRLSCAASGSPFGFNAMGWYRQAPGKERELVAAISRSGTRTYYADSVKGRFTISRDNEKNTVYLQMNSQKPEDTAVYFCAADSTLSRYDYWGQGTQVTVSS	high polyreactivity
QVQLVESGGGLVQAGGSLRLSCAASGLIFHSYAMGWYRPAPGKERELVAAISRGGGSTYYADSVKGRFTISRDNAKNTVYLQMNSLKPEDTAVYYCAREYFTRYDYWGQGTQVTVSS	high polyreactivity
